We go through one sequence from article PMC7705038.

For this data set, the target named is McbR (Escherichia coli (avian pathogenic, strain APECX40)) (UniProt P76114). Put plainly: EMSA. For orientation: A gel shift assay detects complexes by their altered migration in electrophoresis.
McbR (Escherichia coli (avian pathogenic, strain APECX40)), sequence (P76114 whole entry): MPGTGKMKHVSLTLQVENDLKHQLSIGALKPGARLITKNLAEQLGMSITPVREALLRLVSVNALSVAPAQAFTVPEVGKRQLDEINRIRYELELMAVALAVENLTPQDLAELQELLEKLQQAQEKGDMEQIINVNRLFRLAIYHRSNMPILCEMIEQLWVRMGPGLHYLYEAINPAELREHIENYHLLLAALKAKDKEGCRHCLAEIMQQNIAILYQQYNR

In the case of “ATGTTCGTGAATTTACAGGCGTTAGATTTACATACATTTGTGAATGTATGTACCATAGCACGACGATAATATAAACGCAGCAATGGGTTTATTAACTTTTGACCATTGACCAATTTGAAATCGGACACTCGAGGTTTACAT (double strand) [p-acrAB]”, the binding entry is given as “binds”.
